The subject of assay [1] is Noonan syndrome mouse model (Raf1L613V knock-in). The settings on record: Wu 2011; cited from earlier work.
Assay [2] concerns neonatal rat ventricular myocytes. Nature of the assay: Neonatal rat ventricular myocyte hypertrophy (cross-section area, ANF expression). The assay is classed as cell-based. Conditions: for agonist-induced myocyte hypertrophy: BI-D1870 10 μmol/L, SL0101 50 μmol/L, PE, LIF or FBS, 2 days; for PE-induced hypertrophy: expressed in neonatal myocytes. On the procedure:
Neonatal rat myocytes isolation and culture: 1-3 day old Sprague-Dawley rats were decapitated and the excised hearts placed in 1×ADS Buffer (116 mmol/L NaCl, 20 mmol/L HEPES, 1 mmol/L NaH2PO4, 5.5 mmol/L glucose, 5.4 mmol/L KCl, 0.8 mmol/L MgSO4, pH 7.35). The atria were carefully removed and the blood washed away. The ventricles were minced and incubated with 15 mL 1×ADS Buffer containing 3.3 mg type II collagenase (Worthington, 230 U/mg) and 9 mg Pancreatin (Sigma) at 37° C. while shaking at 80 RPM. After 15 minutes, the dissociated cardiac myocytes were separated by centrifugation at 50×g for 1 minute, resuspended in 4 mL horse serum and incubated 37° C. with occasional agitation. The steps for enzymatic digestion and isolation of myocytes were repeated 10-12 times to maximize yield. The myocytes were pooled and spun down again at 50×g for 2 minutes and resuspended in Maintenance Medium (DMEM:M199, 4:1) supplemented with 10% horse serum and 5% fetal bovine serum. To remove any contaminating fibroblasts, the cells were pre-plated for 1 hour before plating on gelatin-coated tissue culture plasticware. This procedure yields >90% pure cardiac myocytes. After 1 day in culture, the media was changed to maintenance medium containing 0.1 mmol/L bromodeoxyuridine to suppress fibroblast growth. Experiments were initiated 1 day after myocyte isolation. Adenoviral infection was performed by addition of adenovirus (multiplicity of infection=5-50) to the media. Plasmids and siRNA oligonucleotides were transfected using Transfast (Promega) and Dharmafect (Thermofisher), respectively, as recommended by the manufacturers using cells cultured in maintenance medium supplemented with 4% horse serum. Starting the day after gene transduction, the cells were treated for as long as 2 days, as indicated for each experiment. Immunocytochemistry: Cultured neonatal cardiomyocytes on plastic coverslips were fixed in 3.7% formaldehyde in PBS, permeabilized with 0.3% Triton X-100 in PBS, and blocked with PBS containing 0.2% BSA and 1% horse serum for 1 hour. The slides were then sequentially incubated for 1 hour with primary and Alexa fluorescent dye-conjugated specific-secondary antibodies (Invitrogen, 1:1000) diluted in blocking buffer. The slips were washed three times with blocking buffer. 1 μg/mL Hoechst 33258 was included in the last wash stop to label nuclei. Slides were sealed in SlowFade Gold antifade buffer (Invitrogen) for fluorescent microscopy. Wide-field images were acquired using a Leica DMI 6000 Microscope. Morphometry: Morphometric data was acquired using IPLab Software. […] For adult mouse cardiac myocytes, the maximum lengths perpendicular (width) or parallel (length) to the myofibrils were measured for >100 freshly dissociated myocytes per heart.

The test system of a further assay is RSK. The assay can be described thus: RSK activation in neonatal rat ventricular myocytes (pan-RSK phospho-S218 Western blot). Conditions: 10 μmol/L PE, 1 hour. Type of assay: cell-based. An excerpt:
RSK family members can be activated in most cell types by ERK, but not c-Jun N-terminal kinases or p38 (Anjum 2008). ERK phosphorylation is permissive for PDK1 phosphorylation of the RSK N-terminal kinase domain, such that PDK1 phosphorylation of RSK S^218 is indicative of full activation of the enzyme (FIG. 4A). […] The α-adrenergic stimulation with phenylephrine (PE) induced RSK phosphorylation 3-fold by both MEK1/2-dependent (that activates ERK1/2) and MEK5-dependent (that activates ERK5) mechanisms (FIG. 22).
Immunoprecipitations: HEK293 and COS-7 cells were transfected with Lipofectamine 2000 (Invitrogen) or Polyethylenimine “Max” (Polysciences). Cells (including myocytes) were lysed in buffer (20 mmol/L HEPES, pH 7.4, 150 mmol/L NaCl, 5 mmol/L EDTA, 0.5% Triton, 50 mmol/L NaF, 1 mmol/L sodium orthovanadate, 1 mmol/L DTT, and protease inhibitors). After centrifugation at 10,000×g for 10 minutes at 4° C., the clarified extracts were used for immunoprecipitation using appropriate antibodies (10 μg purified antibody or 1-5 μL whole serum) and 20 μL protein G sepharose (Millipore, Fastflow) for 3 hours to overnight at 4° C. The beads were washed 3-5 times with lysis buffer, and the immunoprecipitated proteins were eluted with 1× Laemmli buffer for western blotting. […]

A further assay concerns NHE1. Conditions: Cuello 2007; cited from earlier work.
The next assay concerns the target T1, RSK3 (Homo sapiens, UniProt Q15349).
T1 construct: bacterially expressed His-tagged mAKAP 1286 to 1833 and full-length RSK3 was analyzed by surface plasmon resonance; His; made in house; host or cells: bacteria (pET30 / pGEX-4T vectors)
The assay can be described thus: Surface plasmon resonance of His-RSK3 binding to immobilized His-mAKAP 1286-1833. On the procedure: Surface Plasmon Resonance: SPR analysis was performed using a BIAcore T100. 200 resonance units His-tagged mAKAP 1286-1833 were covalently immobilized using NHS (N-hydroxysuccinamide) and EDC [1-ethyl-3-(3-(dimethylamino)propyl)carbodiimide] (Biacore amine coupling kit) to the surface of a sensor chip (BIAcore type CM5). His-RSK3 analytes (6.25-200 nmol/L) in HBS buffer (10 mmol/L Hepes, pH 7.4, 150 mmol/L NaCl, and 0.005% Surfactant P20) were injected at a flow rate of 30 μL/min for 5 minutes, followed by buffer alone for another 5 minutes. Sensorgrams were processed by BIAcore T100 evaluation software.
For phosphorylated His-RSK3, 20 μg His-RSK3 was phosphorylated with 2 μg ERK2 (Millipore, 14-550) and/or PDK1 (Sigma, P7498) for 5 hours in kinase buffer (20 mmol/L MOPS, pH 7.2, 25 mmol/L β-glycerol phosphate, 5 mmol/L EGTA, 1 mmol/L sodium orthovanadate, 1 mmol/L DTT) with 0.5 mmol/L MgATP. Phospho-His-RSK3 was purified using His-binding beads and concentrated before use.
(In general: In SPR one partner is held on a chip, and binding of the other changes the refractive index at the surface.)

Assay [3] relates to HA-RSK3 fragments, HA-RSK2. The assay can be described thus: Co-immunoprecipitation of tagged mAKAP and RSK proteins co-expressed in COS-7 cells. Type of assay: binding. On the procedure:
(§1) Immunoprecipitations: HEK293 and COS-7 cells were transfected with Lipofectamine 2000 (Invitrogen) or Polyethylenimine “Max” (Polysciences). Cells (including myocytes) were lysed in buffer (20 mmol/L HEPES, pH 7.4, 150 mmol/L NaCl, 5 mmol/L EDTA, 0.5% Triton, 50 mmol/L NaF, 1 mmol/L sodium orthovanadate, 1 mmol/L DTT, and protease inhibitors). After centrifugation at 10,000×g for 10 minutes at 4° C., the clarified extracts were used for immunoprecipitation using appropriate antibodies (10 μg purified antibody or 1-5 μL whole serum) and 20 μL protein G sepharose (Millipore, Fastflow) for 3 hours to overnight at 4° C. The beads were washed 3-5 times with lysis buffer, and the immunoprecipitated proteins were eluted with 1× Laemmli buffer for western blotting. Western blots were developed using horseradish peroxidase-conjugated donkey secondary antibodies, Supersignal West Chemiluminescent Substrates (Thermo Scientific) and X-ray film or a Fujifilm LAS-3000 imaging system.

In another assay the test system is RSK3 and mAKAPβ. The assay can be described thus: Co-immunoprecipitation of endogenous RSK3 with mAKAPβ complexes from PE-treated myocytes. The assay is classed as cell-based, rat. The settings on record: expressed in neonatal myocytes. On the procedure: as §1

T1 sequence (Q15349 whole entry): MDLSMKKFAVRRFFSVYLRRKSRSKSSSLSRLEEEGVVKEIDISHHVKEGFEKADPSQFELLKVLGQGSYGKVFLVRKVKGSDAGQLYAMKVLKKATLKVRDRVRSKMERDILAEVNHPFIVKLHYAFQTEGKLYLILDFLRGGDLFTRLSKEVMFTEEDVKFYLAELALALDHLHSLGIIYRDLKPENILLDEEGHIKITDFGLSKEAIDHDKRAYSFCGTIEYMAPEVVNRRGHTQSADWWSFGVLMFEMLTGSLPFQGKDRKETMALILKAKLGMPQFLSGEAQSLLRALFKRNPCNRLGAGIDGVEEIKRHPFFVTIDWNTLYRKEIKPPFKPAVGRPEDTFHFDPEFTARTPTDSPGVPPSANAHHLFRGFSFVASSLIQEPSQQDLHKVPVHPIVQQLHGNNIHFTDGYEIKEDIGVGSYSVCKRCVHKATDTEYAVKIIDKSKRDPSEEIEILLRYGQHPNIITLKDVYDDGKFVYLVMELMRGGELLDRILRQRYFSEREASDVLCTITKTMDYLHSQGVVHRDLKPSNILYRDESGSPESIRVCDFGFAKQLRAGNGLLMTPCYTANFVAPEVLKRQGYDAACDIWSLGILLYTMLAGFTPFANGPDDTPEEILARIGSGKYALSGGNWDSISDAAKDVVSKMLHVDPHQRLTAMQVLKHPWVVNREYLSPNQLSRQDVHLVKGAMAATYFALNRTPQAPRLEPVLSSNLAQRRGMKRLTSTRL

Turning to `O=C(NOC[C@H](O)CO)c1ccc(F)c(F)c1Nc1ccc(I)cc1F` [PD0325901], the “progression of cardiac hypertrophy cardiomyopathy and other Noonan characteristics” value in assay [1] is recorded as “attenuated progression”.
In the case of `CC(C)CCN1c2nc(Nc3cc(F)c(O)c(F)c3)ncc2N(C)C(=O)C1C` (stereo not drawn) [BI-D1870, reference compound], in assay [2], the agonist-induced myocyte hypertrophy entry is listed as “inhibited”.
With `CNC[C@H](O)c1cccc(O)c1` [phenylephrine], the “induction of RSK phosphorylation” value in the assay on RSK came out at 3 fold.
For `Cc1ccc(-c2c(C(=O)CF)n(CCCO)c3ncnc(N)c23)cc1` [fmk], the “α-adrenergic-induced NHE1 phosphorylation” value in the assay with NHE1 is given as “blocked”.
As to `CC(=O)OC1C(C)OC(Oc2c(-c3ccc(O)cc3)oc3cc(O)cc(O)c3c2=O)C(O)C1OC(C)=O` (stereo not drawn) [SL0101, reference compound], the agonist-induced myocyte hypertrophy entry in assay [2] is “inhibited”.

B1: mAKAP 1286 to 1833: bacterially expressed His-tagged mAKAP fragment, residues 1286 to 1833 (protein)
chain: VYSLHNVELHEDSHTPFLKSSPKFTGTTQPTVLTKSLSKDSSFSSTKSLPDLLGGSGLVRPYSCHSGDLSQNSGSESGIVSEGDNEMPTNSDMSLFSMVDGSPSNPETEHPDPQMGDAANVLEQKFKDNGESIKLSSVSRASVSPVGCVNGKAGDLNSVTKHTADCLGEELQGKHDVFTFYDYSYLQGSKLKLPMIMKQPQSEKAHVEDPLLGGFYFDKKSCKAKHQASESQPDAPPHERILASAPHEMGRSAYKSSDIEKTFTGIQSARQLSLLSRSSSVESLSPGGDLFGLGIFKNGSDSLQRSTSLESWLTSYKSNEDLFSCHSSGDISVSSGSVGELSKRTLDLLNRLENIQSPSEQKIKRSVSDMTLQSSSQKMPFAGQMSLDVASSINEDSPASLTELSSSDELSLCSEDIVLHKNKIPESNASFRKRLNRSVADESDVNVSMIVNVSCTSACTDDEDDSDLLSSSTLTLTEEELCLKDEDDDSSIATDDEIYEESNLMSGLDYIKNELQTWIRPKLSLTREKKRSGVTDEIKVNKDGGGNE
modifications: left off: small tags and cut ends
For the molecule B1, the “decrease of RSK3 binding affinity for mAKAP” value was 5 fold with RSK3 (RSK3 previously phosphorylated by ERK); 8 fold with RSK3 (RSK3 previously phosphorylated by both ERK and PDK1). The “KD of binding to full-length RSK3” value with RSK3 (unphosphorylated His-RSK3) was “nanomolar”.

B2: mAKAP RBD: main RSK3 binding domain of mAKAP, fragment encompassing residues 1694 to 1833; competing binding peptide (protein)
chain: ELSLCSEDIVLHKNKIPESNASFRKRLNRSVADESDVNVSMIVNVSCTSACTDDEDDSDLLSSSTLTLTEEELCLKDEDDDSSIATDDEIYEESNLMSGLDYIKNELQTWIRPKLSLTREKKRSGVTDEIKVNKDGGGNE
modifications: left off: small tags and cut ends
For B2, the PE-induced hypertrophy entry in assay [2] is on record as “inhibited”. In addition, the “binding to N-terminally truncated RSK3 mutant (HA-RSK3 DN30) or HA-tagged full-length RSK2” value in assay [3] is “not”.

B3: green fluorescent protein-mAKAP RBD fusion protein: myc-GFP-mAKAP RSK binding domain (RBD) fusion protein; mAKAP 1694-1833 (protein)
chain: ELSLCSEDIVLHKNKIPESNASFRKRLNRSVADESDVNVSMIVNVSCTSACTDDEDDSDLLSSSTLTLTEEELCLKDEDDDSSIATDDEIYEESNLMSGLDYIKNELQTWIRPKLSLTREKKRSGVTDEIKVNKDGGGNE
modifications: left off: small tags and cut ends; large carriers
For the molecule B3, the PE-induced hypertrophy result in assay [2] is “markedly inhibited”. Besides, the “association of endogenous RSK3 and mAKAPβ” value in the assay with RSK3 and mAKAPβ is recorded as “competed”.

The values are drawn from patent US11229679B2, “Compositions for treating heart disease by inhibiting the action of mAKAPβ” (Anchored RSK3 Inhibitors, LLC, priority 2013, dated 2022).
